Test results as given in IntAct's records for PubMed 29039417.

B1: Isoform 2 of Bardet-Biedl syndrome 7 protein (Homo sapiens), Q8IWZ6-2 (parent)
chain: MDLILNRMDYLQVGVTSQKTMKLIPASRHRATQKVVIGDHDGVVMCFGMKKGEAAAVFKTLPGPKIARLELGGVINTPQEKIFIAAASEIRGFTKRGKQFLSFETNLTESIKAMHISGSDLFLSASYIYNHYCDCKDQHYYLSGDKINDVICLPVERLSRITPVLACQDRVLRVLQGSDVMYAVEVPGPPTVLALHNGNGGDSGEDLLFGTSDGKLALIQITTSKPVRKWEIQNEKKRGGILCIDSFDIVGDGVKDLLVGRDDGMVEVYSFDNANEPVLRFDQMLSESVTSIQGGCVGKDSYDEIVVSTYSGWVTGLTTEPIHKESGPGEELKINQEMQNKISSLRNELEHLQYKVLQERENYQQSSQSSKAKSAVPSFGINDKFTLNKDDASYSLILEVQTAIDNVLIQSDVPIDLLDVDKNSAVVSFSSCDSESNDNFLLATYRCQADTTRLELKIRSIEGQYGTLQAYVTPRIQPKTCQVRQYHIKPLSLHQRTHFIDHDRPMNTLTLTGQFSFAEVHSWVVFCLPEVPEKPPAGECVTFYFQNTFLDTQLESTYRKGEGVFKSDNISTISILKDVLSKEATKRKINLNISYEINEVSVKHTLKLIHPKLEYQLLLAKKVQLIDALKELQIHEGNTNFLIPEYHCILEEADHLQEEYKKQPAHLERLYG
partner: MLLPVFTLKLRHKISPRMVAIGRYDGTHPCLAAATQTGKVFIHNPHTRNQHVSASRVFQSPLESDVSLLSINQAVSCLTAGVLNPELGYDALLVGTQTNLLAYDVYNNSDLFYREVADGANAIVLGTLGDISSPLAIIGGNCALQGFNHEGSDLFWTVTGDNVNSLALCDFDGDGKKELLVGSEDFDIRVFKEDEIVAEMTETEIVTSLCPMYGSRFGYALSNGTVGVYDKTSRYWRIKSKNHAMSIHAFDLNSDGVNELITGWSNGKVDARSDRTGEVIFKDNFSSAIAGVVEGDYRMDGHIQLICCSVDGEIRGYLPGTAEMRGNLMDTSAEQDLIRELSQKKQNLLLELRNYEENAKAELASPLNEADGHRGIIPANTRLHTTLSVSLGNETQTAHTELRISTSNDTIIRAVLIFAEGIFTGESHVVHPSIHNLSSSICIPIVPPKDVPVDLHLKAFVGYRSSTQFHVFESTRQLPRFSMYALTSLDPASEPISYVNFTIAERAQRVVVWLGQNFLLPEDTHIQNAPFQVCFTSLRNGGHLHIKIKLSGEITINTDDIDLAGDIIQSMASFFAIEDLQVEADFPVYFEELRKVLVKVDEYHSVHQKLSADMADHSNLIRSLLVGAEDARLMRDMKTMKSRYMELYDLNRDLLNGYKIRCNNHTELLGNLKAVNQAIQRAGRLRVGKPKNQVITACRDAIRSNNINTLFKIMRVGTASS

Variants of: B1
Details: with bbs2_human BBS2, Q9BXC9

Effect of a mutation on the interaction, with no effect:
D503E
D503K
D503A
T508A
T508E
T508K
N507K
N507E
N507A
I500E
I500A
I500K
Y465E
Y465K
T473K
T473A
T473E
M506E
M506K
M506A
H494E
H494A
H494K
F515A
F515E
P478K
P478A
P478E
R484E
R484K
R484A
L493K
L493A
L493E
F499E
F499K
F499A
C481K
C481A
C481E
T480E
T480A
T480K
Q495K
Q495E
Q495A
P474A
K479E
K479A
T467E
T467K
T467A
H487E
H487K
H487A
S492A
S492K
S492E
T512A
T512E
T512K
P490A
P490K
P490E
R475K
R475E
L468K
L468A
L468E
L491E
L491A
L491K
L511A
L511K
L511E
Q514A
Q514K
Q514E
G466K
G466A
Q485E
Q485A
Q485K
Y486E
Y486K
Y486A
K489A
K489E
V472K
V472A
A470K
A470E
Q469E
Q469K
S516A
S516E
S516K
H502E
H502K
H502A
F517A
F517E
L509E
L509A
L509K
H498K
H498A
H498E
V483A
V483K
V483E
Q482A
Q482K
Q482E
Y471A
Y471E
Y471K
I488A
I488E
I488K
G513K
G513A
G513E
I476E
I476K
P505E
P505A
P505K
T510E
T510A
T510K
Q477K
Q477E
T497A
T497K
T497E
D501K
D501E
D501A
R496E
R496A
R496K
R504E
R504K
R504A

Effect of a mutation on the interaction, disrupting interaction strength:
F515K
L493P
F499S
C481R
P474K
P474E
P490L
R475A
L468P
L491P
L511P
G466E
G466D
G466Y
Q485L
Q485N
Q485R
V472E
V472M
Q469A
L509P
V483I
G513D
G513S
G513Y
G513H
I476A
Q477A
